Assay results reported in paper PMC4383598, “Role of Cysteine Residues in the Structure, Stability, and Alkane Producing Activity of Cyanobacterial Aldehyde Deformylating Oxygenase” (PLoS ONE, 2015).

Biological target: the molecule itself
Assay: SEC; Superdex 200pg (124 mL), 500 uL of protein at 2.5 mg/mL, 0.5 mL/min, 10 mM sodium phosphate pH 7.2, 150 mM NaCl; fraction of dimer against monomer

Protein	stoichiometry N
Aldehyde deformylating oxygenase from Nostoc punctiforme PCC 73102, C71S mutant (enzyme, UniProt B2J1M1 1-232, looked up, Aldehyde deformylating oxygenase of Nostoc punctiforme PCC 73102; codon-optimised synthetic gene; Same construct as m1 with the mutation; source: E. coli BL21(DE3)pLysS (pET-15b-AD variant), purified (Ni-agarose, dialysis)) MQQLTDQSKELDFKSETYKDAYSRINAIVIEGEQEAHENYITLAQLLPESHDELIRLSKMESRHKKGFEASGRNLAVTPDLQFAKEFFSGLHQNFQTAAAEGKVVTCLLIQSLIIECFAIAAYNIYIPVADDFARKITEGVVKEEYSHLNFGEVWLKEHFAESKAELELANRQNLPIVWKMLNQVEGDAHTMAMEKDALVEDFMIQYGEALSNIGFSTRDIMRLSAYGLIGA	2
Aldehyde deformylating oxygenase from Nostoc punctiforme PCC 73102, C71A mutant (enzyme, UniProt B2J1M1 1-232, looked up, Aldehyde deformylating oxygenase of Nostoc punctiforme PCC 73102; codon-optimised synthetic gene; Same construct as m1 with the mutation; source: E. coli BL21(DE3)pLysS (pET-15b-AD variant), purified (Ni-agarose, dialysis)) MQQLTDQSKELDFKSETYKDAYSRINAIVIEGEQEAHENYITLAQLLPESHDELIRLSKMESRHKKGFEAAGRNLAVTPDLQFAKEFFSGLHQNFQTAAAEGKVVTCLLIQSLIIECFAIAAYNIYIPVADDFARKITEGVVKEEYSHLNFGEVWLKEHFAESKAELELANRQNLPIVWKMLNQVEGDAHTMAMEKDALVEDFMIQYGEALSNIGFSTRDIMRLSAYGLIGA	2
